From IntAct's records for PubMed 7561682

B1: Focal adhesion kinase 1 (Homo sapiens), Q05397 (parent)
chain: MAAAYLDPNLNHTPNSSTKTHLGTGMERSPGAMERVLKVFHYFESNSEPTTWASIIRHGDATDVRGIIQKIVDSHKVKHVACYGFRLSHLRSEEVHWLHVDMGVSSVREKYELAHPPEEWKYELRIRYLPKGFLNQFTEDKPTLNFFYQQVKSDYMLEIADQVDQEIALKLGCLEIRRSYWEMRGNALEKKSNYEVLEKDVGLKRFFPKSLLDSVKAKTLRKLIQQTFRQFANLNREESILKFFEILSPVYRFDKECFKCALGSSWIISVELAIGPEEGISYLTDKGCNPTHLADFTQVQTIQYSNSEDKDRKGMLQLKIAGAPEPLTVTAPSLTIAENMADLIDGYCRLVNGTSQSFIIRPQKEGERALPSIPKLANSEKQGMRTHAVSVSETDDYAEIIDEEDTYTMPSTRDYEIQRERIELGRCIGEGQFGDVHQGIYMSPENPALAVAIKTCKNCTSDSVREKFLQEALTMRQFDHPHIVKLIGVITENPVWIIMELCTLGELRSFLQVRKYSLDLASLILYAYQLSTALAYLESKRFVHRDIAARNVLVSSNDCVKLGDFGLSRYMEDSTYYKASKGKLPIKWMAPESINFRRFTSASDVWMFGVCMWEILMHGVKPFQGVKNNDVIGRIENGERLPMPPNCPPTLYSLMTKCWAYDPSRRPRFTELKAQLSTILEEEKAQQEERMRMESRRQATVSWDSGGSDEAPPKPSRPGYPSPRSSEGFYPSPQHMVQTNHYQVSGYPGSHGITAMAGSIYPGQASLLDQTDSWNHRPQEIAMWQPNVEDSTVLDLRGIGQVLPTHLMEERLIRQQQEMEEDQRWLEKEERFLKPDVRLSRGSIDREDGSLQGPIGNQHIYQPVGKPDPAAPPKKPPRPGAPGHLGSLASLSSPADSYNEGVKLQPQEISPPPTANLDRSNDKVYENVTGLVKAVIEMSSKIQPAPPEEYVPMVKEVGLALRTLLATVDETIPLLPASTHREIEMAQKLLNSDLGELINKMKLAQQYVMTSLQQEYKKQMLTAAHALAVDAKNLLDVIDQARLKMLGQTRPH

Variants of: B1
Conditions: with paxi_human PXN

Effect of a mutation on the interaction, decreasing interaction:
V928G
L1034S
V935A
V1037D
L1035A
D1039A
L931R
R1042G
